From patent US20030165997, “Zinc finger domain libraries” (published 2003) come the findings set out here.

Data set [1] concerns the target ZFP 23 RDHT-RSNR-QSNR3 (synthetic). In words: cell_activity; HEK293 luciferase repression. The following applies: tags: HA tag and NLS (P3 vector). Here is the method: (§1) The in vivo activity assay for a particular three-finger protein was carried out as follows. HEK 293 cells were transfected with four plasmids: 14 ng of a plasmid expressing the particular three-finger protein; 14 ng of the reporter plasmid described above; 70 ng of a plasmid that expresses GAL4-VP 16; and 1.4 ng of a plasmid that expresses Renillar luciferase. The GAL4-VP 16 activates transcription of the minimal synthetic promoter in the reporter so that the repression effected by a particular three-finger protein could be clearly detected and compared to other three-finger proteins. The plasmid expressing Renillar luciferase provides a control of transfection efficiency.
(§2) Lipofectamine (Gibco-BRL) was used for the transfection procedures. Cells were transfected at 30-50% confluency in wells of a 96 well plate. The cells were incubated for two days prior to harvesting for the luciferase assay. Then luciferase activities were measured using the Dual-Luciferase™ Reporter Assay System (Promega). The observed firefly luciferase activity was normalized using the observed level of Renilla luciferase. The extent of repression or “fold-repression” was calculated by dividing a value for normalized reporter expression in the absence of a zinc finger protein by a value for normalized reporter expression in the presence of the zinc finger protein.
(§3) A total of 153 three-finger chimeric proteins were constructed from both the “zinc finger protein-first” and the “target site-first” approaches. These proteins were tested using the transient cotransfection assay described in Example 68.

The target of data set [2] is ZFP 28 VSSR-QSNR3-RDER1 (synthetic). In words: cell_activity; HEK293 luciferase repression. Particulars: tags: HA tag and NLS (P3 vector). The procedure:
as §1, §2, §3

Data set [3] concerns the target ZFP 16 QSHR2-RDER1-RSHR (synthetic). Description: cell_activity; HEK293 luciferase repression. The following applies: tags: HA tag and NLS (P3 vector). Here is the method:
as §1, §2, §3

For data set [4], the target named is ZFP 10 RDHT-RSHR-QSHR2 (synthetic). In words: cell_activity; HEK293 luciferase repression. Particulars: tags: HA tag and NLS (P3 vector). The procedure:
as §1, §2, §3

For data set [5], the target named is T1, Zif268 zinc finger protein (three fingers) (UniProt P08046 SEQ:1-89). In words: EMSA; Zn2+, Mg2+, pH 7.7, RT; no yeast growth; 1.5-fold repression (Table 8).
The target in data set [6] is ZFP 1 RSNR-RDHT-RSNR (synthetic). In words: cell_activity; HEK293 luciferase repression of GAL4-VP16 activated reporter. The following applies: tags: HA tag and NLS (P3 vector). Here is the method: as §1
ZFP 1 RSNR-RDHT-RSNR (synthetic), sequence (chain, as listed by the source): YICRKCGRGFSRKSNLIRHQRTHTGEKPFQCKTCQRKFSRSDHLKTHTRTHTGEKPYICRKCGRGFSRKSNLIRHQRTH
(§4) Lipofectamine (Gibco-BRL) was used for the transfection procedures. Cells were transfected at 30-50% confluency in wells of a 96 well plate. The cells were incubated for two days prior to harvesting for the luciferase assay. Then luciferase activities were measured using the Dual-Luciferase™ Reporter Assay System (Promega). The observed firefly luciferase activity was normalized using the observed level of Renilla luciferase. The extent of repression or “fold-repression” was calculated by dividing a value for normalized reporter expression in the absence of a zinc finger protein by a value for normalized reporter expression in the presence of the zinc finger protein. […]

In data set [7] the target is ZFP 24 CSNR1-QSHT-RSNR (synthetic). In words: cell_activity; HEK293 luciferase repression. The following applies: tags: HA tag and NLS (P3 vector). Here is the method: as §1, §2, §3
ZFP 24 CSNR1-QSHT-RSNR (synthetic), sequence (chain, as listed by the source): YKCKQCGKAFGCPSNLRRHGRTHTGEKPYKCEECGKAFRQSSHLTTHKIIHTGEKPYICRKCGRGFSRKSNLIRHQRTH
In data set [8] the target is ZFP 20 QSNR3-QSHR2-RSNR (synthetic). In words: cell_activity; HEK293 luciferase repression. Particulars: tags: HA tag and NLS (P3 vector). Here is the method:
as §1, §2, §3

Data set [9] addresses ZFP 4 RSHR-RDER1-RDER1 (synthetic). Description: cell_activity; HEK293 luciferase repression. Particulars: tags: HA tag and NLS (P3 vector). The procedure:
as §1, §2, §3

Data set [10] has as its target ZFP 19 RDER1-VSSR-QSHT (synthetic). In words: cell_activity; HEK293 luciferase repression. The following applies: tags: HA tag and NLS (P3 vector). The procedure: as §1, §2, §3
Data set [11] deals with ZFP 27 RSHR-RDER1-RSHR (synthetic). Description: cell_activity; HEK293 luciferase repression. The following applies: tags: HA tag and NLS (P3 vector). Here is the method: as §1, §2, §3
ZFP 27 RSHR-RDER1-RSHR (synthetic), sequence (chain, as listed by the source): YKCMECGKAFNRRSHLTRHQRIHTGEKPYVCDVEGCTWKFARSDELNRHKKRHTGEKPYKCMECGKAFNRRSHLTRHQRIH
Data set [12] deals with ZFP 25 QSNR3-RDER1-RSNR (synthetic). Description: cell_activity; HEK293 luciferase repression; same pair listed again as entry 61 with 1.5. Particulars: tags: HA tag and NLS (P3 vector). Here is the method: as §1, §4
ZFP 25 QSNR3-RDER1-RSNR (synthetic), sequence (chain, as listed by the source): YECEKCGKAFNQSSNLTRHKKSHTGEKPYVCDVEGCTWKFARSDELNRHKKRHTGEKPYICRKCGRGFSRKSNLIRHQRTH
In data set [13] the target is ZFP 11 QSHT-RSHR-RDHT (synthetic). Description: cell_activity; HEK293 luciferase repression. The following applies: tags: HA tag and NLS (P3 vector). Here is the method: as §1, §2, §3
ZFP 11 QSHT-RSHR-RDHT (synthetic), sequence (chain, as listed by the source): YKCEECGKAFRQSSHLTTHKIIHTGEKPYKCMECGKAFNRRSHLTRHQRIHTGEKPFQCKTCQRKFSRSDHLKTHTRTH
Data set [14] addresses T1, Zif268 zinc finger protein (three …). In words: EMSA; Zn2+, Mg2+, pH 7.7, RT; no yeast growth; 1.6-fold repression (Table 8).
Data set [15] concerns the target ZFP 6 RSHR-RDER1-RDHT (synthetic). Description: cell_activity; HEK293 luciferase repression. Particulars: tags: HA tag and NLS (P3 vector). The procedure: as §1, §2, §3
Data set [16] deals with ZFP 22 RSNR-VSSR-RSHR (synthetic). In words: cell_activity; HEK293 luciferase repression. The following applies: tags: HA tag and NLS (P3 vector). Here is the method:
as §1, §2, §3

ZFP 10 RDHT-RSHR-QSHR2 (synthetic), sequence (chain, as listed by the source): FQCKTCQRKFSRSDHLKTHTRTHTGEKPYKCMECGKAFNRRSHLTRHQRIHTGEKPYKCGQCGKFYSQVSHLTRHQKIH
ZFP 6 RSHR-RDER1-RDHT (synthetic), sequence (chain, as listed by the source): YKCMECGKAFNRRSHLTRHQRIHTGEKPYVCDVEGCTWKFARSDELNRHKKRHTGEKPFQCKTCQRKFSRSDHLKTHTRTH
ZFP 28 VSSR-QSNR3-RDER1 (synthetic), sequence (chain, as listed by the source): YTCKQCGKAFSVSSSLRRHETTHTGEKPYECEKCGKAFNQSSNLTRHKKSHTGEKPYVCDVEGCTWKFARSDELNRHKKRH
ZFP 19 RDER1-VSSR-QSHT (synthetic), sequence (chain, as listed by the source): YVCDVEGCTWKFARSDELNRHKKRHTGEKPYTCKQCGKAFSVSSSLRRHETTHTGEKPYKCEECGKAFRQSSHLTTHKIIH
ZFP 23 RDHT-RSNR-QSNR3 (synthetic), sequence (chain, as listed by the source): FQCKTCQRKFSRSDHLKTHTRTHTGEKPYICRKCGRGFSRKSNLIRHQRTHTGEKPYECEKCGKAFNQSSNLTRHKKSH
ZFP 4 RSHR-RDER1-RDER1 (synthetic), sequence (chain, as listed by the source): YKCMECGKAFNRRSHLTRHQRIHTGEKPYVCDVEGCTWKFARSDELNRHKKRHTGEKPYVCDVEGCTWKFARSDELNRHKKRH
ZFP 16 QSHR2-RDER1-RSHR (synthetic), sequence (chain, as listed by the source): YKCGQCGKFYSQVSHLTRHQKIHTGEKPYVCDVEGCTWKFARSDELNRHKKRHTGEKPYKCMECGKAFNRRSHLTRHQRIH
ZFP 22 RSNR-VSSR-RSHR (synthetic), sequence (chain, as listed by the source): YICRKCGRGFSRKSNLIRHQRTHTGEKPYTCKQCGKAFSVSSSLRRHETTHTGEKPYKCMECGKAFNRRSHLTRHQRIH
ZFP 20 QSNR3-QSHR2-RSNR (synthetic), sequence (chain, as listed by the source): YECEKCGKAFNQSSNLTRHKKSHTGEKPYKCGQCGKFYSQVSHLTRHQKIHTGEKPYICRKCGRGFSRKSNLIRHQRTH

B1: target 23 (dsDNA)
DNA 1: GAAGAGAGGT
DNA 2: ACCTCTCTTC
On to B1, for which the activity in [1] amounted to 2.1 fold repression.

B2: target 28 (dsDNA)
DNA 1: GCGGAAGTTC
DNA 2: GAACTTCCGC
As to B2, the activity in data set [2] stood at 2 fold repression.

B3: target 16 (dsDNA)
DNA 1: GGGGCGGGAT
DNA 2: ATCCCGCCCC
B3 displayed an activity in data set [3] of 2.3 fold repression.

B4: target 10 (dsDNA)
DNA 1: GGAGGGTGG
DNA 2: CCACCCTCC
With B4, the activity in [4] is 3.1 fold repression.

B5: GCTT probe (dsDNA)
DNA 1: CCGGGTCGTGCTTGGGCGGTACCG
DNA 2: TCGACGGTACCGCCCAAGCACGAC
Molecule B5 yielded a Kd in [5] of 2.1 nM.

B6: target 1 (dsDNA)
DNA 1: GAGAGGGAGC
DNA 2: GCTCCCTCTC
For B6, the activity in data set [6] was 8.1 fold repression.

B7: target 24 (dsDNA)
DNA 1: GAGTGAGACC
DNA 2: GGTCTCACTC
B7 registered an activity in data set [7] of 2.1 fold repression.

B8: target 20 (dsDNA)
DNA 1: GAGGGAGAAG
DNA 2: CTTCTCCCTC
The molecule B8 showed an activity in data set [8] of 2.1 fold repression.

B9: target 4 (dsDNA)
DNA 1: GCGGCGGGGC
DNA 2: GCCCCGCCGC
Molecule B9 displayed an activity in data set [9] of 3.8 fold repression.

B10: target 19 (dsDNA)
DNA 1: CGAGTTGCG
DNA 2: CGCAACTCG
In data set [10], B10 returned an activity of 2.1 fold repression.

B11: target 27 (dsDNA)
DNA 1: GGGGTGGGG
DNA 2: CCCCACCCC
B11: the activity in data set [11] was determined as 2 fold repression.

B12: target 25 (dsDNA)
DNA 1: GAGGCGGAAA
DNA 2: TTTCCGCCTC
In [12], B12 returned an activity of 2.1 fold repression.

B13: target 11 (dsDNA)
DNA 1: TGGGGGTGA
DNA 2: TCACCCCCA
Molecule B13 gave an activity in data set [13] of 3 fold repression.

B14: GAGC probe (dsDNA)
DNA 1: CCGGGTCGCGAGCGGGCGGTACCG
DNA 2: TCGACGGTACCGCCCGCTCGCGAC
In the case of B14, the equilibrium dissociation constant (Kd) in data set [14] is 2.3 nM.

B15: target 6 (dsDNA)
DNA 1: AGGGCGGGGC
DNA 2: GCCCCGCCCT
With B15, in data set [15], the activity worked out at 3.6 fold repression.

B16: target 22 (dsDNA)
DNA 1: GGGGTTGAG
DNA 2: CTCAACCCC
As for B16, the activity in data set [16] came to 2.1 fold repression.
